Drawing on paper doi:10.1101/2020.06.23.167452v1 (biorxiv, 2020), this text covers Ki and Km for two molecules.

The target of data set [1] is T1, TcAK (arginine kinase from Trypanosoma cruzi) (Trypanosoma cruzi, UniProt O96507).
T1 sequence (O96507 1-357): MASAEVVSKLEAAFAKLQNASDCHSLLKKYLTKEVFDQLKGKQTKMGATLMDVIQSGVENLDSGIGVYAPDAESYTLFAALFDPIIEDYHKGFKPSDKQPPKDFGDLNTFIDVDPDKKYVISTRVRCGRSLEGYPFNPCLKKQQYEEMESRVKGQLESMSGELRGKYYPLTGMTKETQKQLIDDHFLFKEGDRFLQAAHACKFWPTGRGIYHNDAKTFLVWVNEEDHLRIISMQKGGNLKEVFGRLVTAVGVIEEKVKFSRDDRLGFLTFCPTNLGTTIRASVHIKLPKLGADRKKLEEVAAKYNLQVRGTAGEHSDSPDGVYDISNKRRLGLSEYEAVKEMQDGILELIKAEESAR
Description: coupled pyruvate kinase / lactate dehydrogenase assay, NADH at […] nm. The data set is classed as biochemical.

Substrate in data set [2]: N=C(N)NCCC[C@H](N)C(=O)O
Description: purified protein. To be noted: no delphinidin, ATP 1.5 mM, 1.5 mM MgCl2, Tris-HCl pH 8.2.

Substrate in data set [3]: Nc1ncnc2c1ncn2[C@@H]1O[C@H](COP(=O)(O)OP(=O)(O)OP(=O)(O)O)[C@@H](O)[C@H]1O
Description: purified protein. To be noted: no delphinidin, arginine 10 mM, 1.5 mM MgCl2, Tris-HCl pH 8.2.

For `Oc1cc(O)c2cc(O)c(-c3cc(O)c(O)c(O)c3)[o+]c2c1` [delphinidin], the Ki in data set [1] is 1320 nM. That is a single-digit micromolar value.

B1: TcAK (arginine kinase from Trypanosoma cruzi) (Trypanosoma cruzi) (protein)
chain: T1 sequence (O96507 1-357)
Take B1: the Km in data set [2] stood at 0.81 ± 0.33 mM; in data set [3] it was 0.20 ± 0.33 mM.
